Laboratory results as given in paper PMC12363979 (International Journal of Nanomedicine, 2025).

B1: D25 monoclonal antibody (IgG) (antibody, V domains shown)
VH: QVQLVQSGAEVKKPGSSVMVSCQASGGPLRNYIINWLRQAPGQGPEWMGGIIPVLGTVHYAPKFQGRVTITADESTDTAYIHLISLRSEDTAMYYCATETALVVSTTYLPHYFDNWGQGTLVTVSS
VL: DIQMTQSPSSLSAAVGDRVTITCQASQDIVNYLNWYQQKPGKAPKLLIYVASNLETGVPSRFSGSGSGTDFSLTISSLQPEDVATYYCQQYDNLPLTFGGGTKVEIK
B2: AM14 monoclonal antibody (IgG) (antibody, V domains shown)
VH: EVQLVESGGGVVQPGRSLRLSCAASGFSFSHYAMHWVRQAPGKGLEWVAVISYDGENTYYADSVKGRFSISRDNSKNTVSLQMNSLRPEDTALYYCARDRIVDDYYYYGMDVWGQGATVTVSS
VL: DIQMTQSPSSLSASVGDRVTITCQASQDIKKYLNWYHQKPGKVPELLMHDASNLETGVPSRFSGRGSGTDFTLTISSLQPEDIGTYYCQQYDNLPPLTFGGGTKVEIK

Key:
[1] = molecular target: T1, RSV F construct DS2 (stabilized prefusion F trimer) (human RSV A, Long strain (paper); …, stabilised); test: SPR
T1 chain: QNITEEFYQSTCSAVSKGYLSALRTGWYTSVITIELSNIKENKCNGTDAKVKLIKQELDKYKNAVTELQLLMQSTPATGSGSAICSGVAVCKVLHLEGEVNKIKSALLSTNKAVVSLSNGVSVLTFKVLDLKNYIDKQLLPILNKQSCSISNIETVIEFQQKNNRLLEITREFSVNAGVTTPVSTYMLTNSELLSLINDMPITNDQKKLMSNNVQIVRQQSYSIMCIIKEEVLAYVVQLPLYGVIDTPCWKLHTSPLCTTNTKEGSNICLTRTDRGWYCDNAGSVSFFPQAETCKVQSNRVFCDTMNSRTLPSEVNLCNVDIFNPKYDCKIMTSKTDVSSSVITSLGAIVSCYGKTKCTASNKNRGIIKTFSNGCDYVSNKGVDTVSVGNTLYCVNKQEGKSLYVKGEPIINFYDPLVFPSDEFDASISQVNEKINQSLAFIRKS

[2] = molecular target: T2, DS2-I53-50 nanoparticle (DS2-I53-50A co-assembled with I53-50B) (human RSV A, Long strain (paper); …, stabilised); test: SPR
T2 chain: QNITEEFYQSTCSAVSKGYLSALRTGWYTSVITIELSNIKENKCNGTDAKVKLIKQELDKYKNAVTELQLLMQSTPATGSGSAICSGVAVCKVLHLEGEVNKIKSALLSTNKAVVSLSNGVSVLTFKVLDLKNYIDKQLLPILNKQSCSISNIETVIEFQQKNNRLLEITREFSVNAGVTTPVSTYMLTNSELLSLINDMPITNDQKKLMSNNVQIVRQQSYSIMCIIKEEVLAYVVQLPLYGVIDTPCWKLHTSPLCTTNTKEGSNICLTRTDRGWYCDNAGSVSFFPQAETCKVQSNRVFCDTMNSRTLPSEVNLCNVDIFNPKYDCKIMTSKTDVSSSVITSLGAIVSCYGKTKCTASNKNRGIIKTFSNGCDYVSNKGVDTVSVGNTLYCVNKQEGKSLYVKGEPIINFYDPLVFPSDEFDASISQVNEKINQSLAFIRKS

| Binder | kon [1] [M⁻¹ s⁻¹] | kon [2] [M⁻¹ s⁻¹] |
| --- | --- | --- |
| B1 | 114000 | 1.39e+06 |
| B2 | 438000 | 4.33e+06 |
